# Measured values reported in US6972319B1, “Pituitary adenylate cyclase activating peptide (PACAP)receptor 3 (R3) agonists and their pharmacological methods of use” (priority 1999, dated 2005).
# Non-standard residues stand in square brackets, D forms with d. No end group written: not given here. Nle = CCCC[C@H](N)C(=O)O
# T1: PACAP-R3 (human, UniProt P41587 24-438)
# T1 sequence (looked up): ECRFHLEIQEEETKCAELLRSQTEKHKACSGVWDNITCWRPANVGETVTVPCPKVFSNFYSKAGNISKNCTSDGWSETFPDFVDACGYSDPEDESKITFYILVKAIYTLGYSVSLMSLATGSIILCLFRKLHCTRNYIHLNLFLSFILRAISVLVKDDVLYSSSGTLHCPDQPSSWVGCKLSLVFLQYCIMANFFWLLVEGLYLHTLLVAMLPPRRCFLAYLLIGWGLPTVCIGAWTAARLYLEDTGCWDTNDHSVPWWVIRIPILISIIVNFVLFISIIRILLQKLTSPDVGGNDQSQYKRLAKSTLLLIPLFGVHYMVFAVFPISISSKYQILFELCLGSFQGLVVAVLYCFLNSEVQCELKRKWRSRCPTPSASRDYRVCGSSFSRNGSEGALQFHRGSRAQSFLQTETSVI
# T2: PACAP-R3 (Homo sapiens, UniProt P41587)
# T2 sequence (P41587 24-438): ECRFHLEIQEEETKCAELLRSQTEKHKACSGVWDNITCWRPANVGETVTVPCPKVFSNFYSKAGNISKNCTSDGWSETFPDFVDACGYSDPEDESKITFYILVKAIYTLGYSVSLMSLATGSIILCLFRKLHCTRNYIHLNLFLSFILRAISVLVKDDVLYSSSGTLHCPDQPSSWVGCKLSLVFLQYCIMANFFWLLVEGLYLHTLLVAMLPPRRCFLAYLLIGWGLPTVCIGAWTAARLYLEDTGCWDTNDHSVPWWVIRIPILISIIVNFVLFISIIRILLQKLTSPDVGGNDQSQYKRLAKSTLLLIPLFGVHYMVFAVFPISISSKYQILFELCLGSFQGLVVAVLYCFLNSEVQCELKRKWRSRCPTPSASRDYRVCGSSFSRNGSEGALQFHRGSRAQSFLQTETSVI
# Target: T1, PACAP-R3
# Test: cell-based or functional assay
# Conditions: not given
R3 EC50,R3 Selectivity,Molecule
0.32 nM,170,HSDAVFTDNYTRLRKQMAVKKYLNSIKKK [R3P58]
0.2 nM,2500,HSDAVFTDNYTRLRKQMAAKKYLNSIKKKR [R3P53]
0.13 nM,6,HSDAVFTDNYTRLRKQMAAKKYLNSILK [R3P50]
1 nM,120,HSDAVFTDNYTRLRKQVAAKKYLQSIKK [R3P60]
0.5 nM,> 200,HSDAVFTDNYTRLRKQMAAKKYLNSIKKK [R3P54]
0.26 nM,90,HSDAVFTDNYTRLRKQMAAKKYLNSIKK [R3P51]
0.8 nM,140,HSDAVFTDNYTRLRKQIAAKKYLQTIKK [R3P61]
0.23 nM,190,HSDAVFTDNYTRLRKQMAVKKYLNSIKKKR [R3P57]
0.4 nM,> 250,HSDAVFTDNYTRLRKQMAAKKYLNSIKKKRY [R3P52]
0.17 nM,280,HSDAVFTDNYTRLRKQMAAKKYLNSIKNKRY [R3P55]
0.4 nM,100,HSDAVFTDNYTRLRKQMAVKKYLNSIKKKRY [R3P56]
0.15 nM,70,HSDAVFTDNYTRLRKQMAVKKYLNSIKNKRY [R3P59]

# Continued, molecule first:
Molecule,R3 EC50,R3 Selectivity
HSDAVFTDNYTRLRKQMAVKKYLNDILN [R3P48],0.13 nM,8
HSDAVFTDNYTRLRKQMAAKKYLNSILN [R3P47],0.12 nM,6
Ac-HSDAVFTENYTKLRKQLAAKKYLNDLKKGGT (ends and bridges not checked) [R3P2],3 nM,> 300
Ac-HSDAVFTENYTKLRKQ[Nle]AAKKYLNDLKKGGT-NH2 [R3P0],0.4 nM,> 250
Ac-HSDAVFTENYTKLRKQLAAKKYLNDLKKGGT-NH2 [R3P1],2 nM,> 50
HSDAVFTDNYTRLRKQMAAKKYLNSIKN [R3P49],0.27 nM,30
HSDAVFTDNYTRLRKQLAVKKYLNSILN [R3P46],0.06 nM,7

# Target: T2, PACAP-R3
# Test: Cyclic AMP SPA on CHO cells expressing PACAP R3
# Type: cell-based
# Design: expressed in transfected cells; host or cells: CHO cells (Geneticin selection)
# Conditions: not given
# Method: CHO cells expressing the PACAP R3 were plated in 96-well plates (Costar) at 8×10^4 cell/well and grown at 37 C. for 24 hours in α MEM+nucleosides+glutamine (Giobco BRL), 10% FBS, 100 μg/ml Pen/Strep, 0.3 mg/ml glutamine, 1 mM HEPES, 0.5 mg/ml Geneticin (Gibco BRL). The media was removed and the plates were washed with PBS. The cells were incubated with a peptide, in Hepes-PBS-BSA with 0.4 mg/mlSoybean Trypsin Inhibitor, 0.5 mg/ml Bacitracin, 100 uM IBMX, for 15 min at 37 C. Cyclic AMP in the cell extracts was quantitated using the cAMP SPA direct screening assay system (Amersham Pharmacia Biotech Inc, Piscataway, N.J.,). The peptides shown in Table 3 were assayed for cAMP activity.
# EC50 is defined as the concentration of the polypeptide at which 50% of maximum PACAP27 activity is achieved. “NA” denotes no detectable activities. “R3 Selectivity” is derived from the ratio of EC50 at R2 versus EC50 at R3.
row,Molecule,EC50
1,HSDAVFTDDYTRLRKEVAAKKYLESIKDKRY [Peptide R3P173],200 nM

# Same assay, conditions: cAMP SPA, CHO cells transfected with PACAP-R3; concentration at which 50% of maximum PACAP27 activity is achieved; NA = no detectable activities; read-out: R3 EC50
row,EC50,Molecule
1,0.16 nM,CC[C@H](C)[C@H](NC(=O)[C@@H](NC(=O)[C@H](CC(N)=O)NC(=O)[C@H](CC(C)C)NC(=O)[C@H](Cc1ccc(O)cc1)NC(=O)[C@H](CCCCN)NC(=O)[C@H](CCCCN)NC(=O)[C@H](C)NC(=O)[C@H](C)NC(=O)[C@H](CC(C)C)NC(=O)[C@H](CCC(N)=O)NC(=O)[C@H](CCCCN)NC(=O)[C@H](CCCNC(=N)N)NC(=O)[C@H](CC(C)C)NC(=O)[C@H](CCCNC(=N)N)NC(=O)[C@@H](NC(=O)[C@H](Cc1ccc(O)cc1)NC(=O)[C@H](CCC(N)=O)NC(=O)[C@H](CC(=O)O)NC(=O)[C@@H](NC(=O)[C@H](Cc1ccccc1)NC(=O)[C@@H](NC(=O)[C@H](C)NC(=O)[C@H](CC(=O)O)NC(=O)[C@H](CO)NC(=O)[C@@H](N)Cc1c[nH]cn1)C(C)C)[C@@H](C)O)[C@@H](C)O)[C@@H](C)O)C(=O)N[C@@H](CCCCN)C(=O)N[C@@H](CC(N)=O)C(=O)N[C@@H](CCCCN)C(=O)N[C@@H](CCCNC(=N)N)C(=O)N[C@@H](Cc1ccc(O)cc1)C(=O)O [Peptide R3P72]
2,0.08 nM,CC[C@H](C)[C@H](NC(=O)[C@H](CO)NC(=O)[C@H](CCC(N)=O)NC(=O)[C@H](CC(C)C)NC(=O)[C@H](Cc1ccc(O)cc1)NC(=O)[C@H](CCCCN)NC(=O)[C@H](CCCCN)NC(=O)[C@H](C)NC(=O)[C@H](C)NC(=O)[C@@H](NC(=O)[C@H](CCC(N)=O)NC(=O)[C@H](CCCCN)NC(=O)[C@H](CCCNC(=N)N)NC(=O)[C@H](CC(C)C)NC(=O)[C@H](CCCNC(=N)N)NC(=O)[C@@H](NC(=O)[C@H](Cc1ccc(O)cc1)NC(=O)[C@H](CC(N)=O)NC(=O)[C@H](CC(=O)O)NC(=O)[C@@H](NC(=O)[C@H](Cc1ccccc1)NC(=O)[C@@H](NC(=O)[C@H](C)NC(=O)[C@H](CC(=O)O)NC(=O)[C@H](CO)NC(=O)[C@@H](N)Cc1c[nH]cn1)C(C)C)[C@@H](C)O)[C@@H](C)O)C(C)C)C(=O)N[C@@H](CC(C)C)C(=O)N[C@@H](CCCCN)C(=O)N[C@@H](CCCCN)C(=O)N[C@@H](CCCNC(=N)N)C(=O)N[C@@H](Cc1ccc(O)cc1)C(=O)O [Peptide R3P83]
3,0.3 nM,CC[C@H](C)[C@H](NC(=O)[C@H](CO)NC(=O)[C@H](CC(N)=O)NC(=O)[C@H](CC(C)C)NC(=O)[C@H](Cc1ccc(O)cc1)NC(=O)[C@H](CCCCN)NC(=O)[C@H](CCCCN)NC(=O)[C@H](CC(C)C)NC(=O)[C@H](C)NC(=O)[C@H](CCSC)NC(=O)[C@H](CCC(N)=O)NC(=O)[C@H](CCCCN)NC(=O)[C@H](CCCNC(=N)N)NC(=O)[C@H](CC(C)C)NC(=O)[C@H](CCCNC(=N)N)NC(=O)[C@@H](NC(=O)[C@H](Cc1ccc(O)cc1)NC(=O)[C@H](CC(N)=O)NC(=O)[C@H](CC(=O)O)NC(=O)[C@@H](NC(=O)[C@H](Cc1ccccc1)NC(=O)[C@@H](NC(=O)[C@H](C)NC(=O)[C@H](CC(=O)O)NC(=O)[C@H](CO)NC(=O)[C@@H](N)Cc1c[nH]cn1)C(C)C)[C@@H](C)O)[C@@H](C)O)C(=O)N[C@@H](CCCCN)C(=O)N[C@@H](CC(N)=O)C(=O)N[C@@H](CCCCN)C(=O)N[C@@H](CCCNC(=N)N)C(=O)O [Peptide R3P105]
4,3 nM,CC[C@H](C)[C@H](NC(=O)[C@H](CO)NC(=O)[C@H](CC(N)=O)NC(=O)[C@H](CC(C)C)NC(=O)[C@H](Cc1ccc(O)cc1)NC(=O)[C@H](CCCCN)NC(=O)[C@H](CCCCN)NC(=O)[C@H](CO)NC(=O)[C@H](C)NC(=O)[C@H](CCSC)NC(=O)[C@H](CCC(N)=O)NC(=O)[C@H](CCCCN)NC(=O)[C@H](CCCNC(=N)N)NC(=O)[C@H](CC(C)C)NC(=O)[C@H](CCCNC(=N)N)NC(=O)[C@@H](NC(=O)[C@H](Cc1ccc(O)cc1)NC(=O)[C@H](CC(N)=O)NC(=O)[C@H](CC(=O)O)NC(=O)[C@@H](NC(=O)[C@H](Cc1ccccc1)NC(=O)[C@@H](NC(=O)[C@H](C)NC(=O)[C@H](CC(=O)O)NC(=O)[C@H](CO)NC(=O)[C@@H](N)Cc1c[nH]cn1)C(C)C)[C@@H](C)O)[C@@H](C)O)C(=O)N[C@@H](CCCCN)C(=O)N[C@@H](CC(N)=O)C(=O)N[C@@H](CCCCN)C(=O)N[C@@H](CCCNC(=N)N)C(=O)O [Peptide R3P111]
5,3 nM,Ac-HSDAVFTENYTKLRKQLAAKKYLNDLKKGGT [Peptide R3P2]
6,34 nM,HKDGIFTDSYSRYRKQMAVKKYLAAVL-NH2 [PAC2]

# Further lines, the molecule ahead of its results:
row,Molecule,EC50
1,H-HSDAVFTDNYTRLRKQLAVKKYLNDIKKGGT-OH [Peptide R3P21],0.3 nM
2,H-HSDAVFTDNYTRLRKQMAAKKYLNSIGNKR-OH [Peptide R3P121],1 nM
3,H-HSDAVFTDNYTRLRKQMAGKKYLNSIQNRI-OH [rR3P185],4.5 nM
4,H-HSDAVFTDNYTRLRKQMAPKKYLNSIKNKR [Peptide R3P108],300 nM
5,HSDAVFTDNYTRLRKQMAQKKYLNSIKNKR [Peptide R3P109],10 nM

# Same assay, conditions: ratio of EC50 at R2 versus EC50 at R3
row,Molecule,R3 Selectivity
1,H-HSDAVFTDNYTRLRKQLAVKKYLNDIKKGGT-OH [Peptide R3P21],60
2,H-HSDAVFTDNYTRLRKQMAAKKYLNSIGNKR-OH [Peptide R3P121],50
3,H-HSDAVFTDNYTRLRKQMAGKKYLNSIQNRI-OH [rR3P185],40
4,H-HSDAVFTDNYTRLRKQMAPKKYLNSIKNKR [Peptide R3P108],3
5,HSDAVFTDNYTRLRKQMAQKKYLNSIKNKR [Peptide R3P109],100
6,HSDGIFTDSYSRYRKQLAAKKYLADVKK [Peptide R3P38],7
